Experimental data as given in US20240368233A1 (University of Washington, published 2024).

What was measured:
[1] = biological target: T1, DFX; assay: negative-stain EM of the heterotrimer; components named in the legend
T1 construct: Bivalent connector
T1 chain: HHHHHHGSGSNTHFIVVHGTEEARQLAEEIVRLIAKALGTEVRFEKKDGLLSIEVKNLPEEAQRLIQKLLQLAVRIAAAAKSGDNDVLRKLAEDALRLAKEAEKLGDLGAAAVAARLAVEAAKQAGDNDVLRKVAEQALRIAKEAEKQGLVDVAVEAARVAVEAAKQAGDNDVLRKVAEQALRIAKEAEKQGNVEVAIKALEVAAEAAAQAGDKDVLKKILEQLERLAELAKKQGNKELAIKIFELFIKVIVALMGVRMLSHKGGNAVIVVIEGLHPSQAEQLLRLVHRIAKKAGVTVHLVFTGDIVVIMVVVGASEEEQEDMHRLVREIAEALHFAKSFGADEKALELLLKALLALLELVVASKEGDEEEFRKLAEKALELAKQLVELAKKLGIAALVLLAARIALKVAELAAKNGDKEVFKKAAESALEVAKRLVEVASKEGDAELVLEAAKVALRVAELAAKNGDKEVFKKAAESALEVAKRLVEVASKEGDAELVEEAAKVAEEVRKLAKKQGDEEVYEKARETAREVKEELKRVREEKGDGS
Protocol: SEC peak fractions were concentrated prior to negative stain EM screening. Samples were then immediately diluted 5 to 150 times in TBS buffer (25 mM Tris pH 8.0, 25 mM NaCl) depending on sample concentration. A final volume of 5 μL was applied to negatively glow discharged, carbon-coated 400-mesh copper grids (01844-F, TedPella, Inc.), then washed with Milli-Q™ Water and stained using 0.75% uranyl formate as previously described (53). Air-dried grids were imaged on a FEI Talos L120C TEM (FEI Thermo Scientific, Hillsboro, OR) equipped with a 4K×4K Gatan OneView™ camera at a magnification of 57,000× and pixel size of 2.51. Micrographs were imported into CisTEM software or cryoSPARC™ software and a circular blob picker was used to select particles which were then subjected to 2D classification. Ab initio reconstruction and homogeneous refinement in Cn symmetry were used to generate 3D electron density maps (54, 55).

[2] = biological target: T2, LHD274 B62; assay: SEC binding assay (Superdex 200, normalised A230) of A, B and the mixture AB
T2 construct: also called LHD274 B DHR62 C
T2 single chain, LHD274 chain B fused to DHR62: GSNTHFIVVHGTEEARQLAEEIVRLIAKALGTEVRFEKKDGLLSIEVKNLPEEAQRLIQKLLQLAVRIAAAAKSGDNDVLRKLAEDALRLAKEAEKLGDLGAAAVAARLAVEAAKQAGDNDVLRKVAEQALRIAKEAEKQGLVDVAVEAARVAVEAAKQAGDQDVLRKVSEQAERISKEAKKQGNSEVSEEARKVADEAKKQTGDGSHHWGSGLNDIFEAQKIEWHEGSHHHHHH

[3] = biological target: the molecule itself; assay: SEC titration (Superdex 200, normalised A230) of 274A53 and 29A53 alone; self-association
[4] = biological target: T3, 274B53; assay: SEC titration (Superdex 200, normalised A230) of the complexes 274A53/274B53 and 29A53/29B53
T3 construct: also called LHD274B DHR53 stop
T3 chain: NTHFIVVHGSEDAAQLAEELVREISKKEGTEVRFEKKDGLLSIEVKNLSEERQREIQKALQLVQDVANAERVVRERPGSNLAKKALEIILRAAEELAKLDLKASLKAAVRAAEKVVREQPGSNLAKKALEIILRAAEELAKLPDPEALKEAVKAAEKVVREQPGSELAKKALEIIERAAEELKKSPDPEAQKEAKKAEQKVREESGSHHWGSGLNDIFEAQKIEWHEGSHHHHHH

[5] = biological target: T4, DFA0; assay: SEC of mixed components; linear tetramer listed in Table 6, neighbours in the chain
T4 construct: Bivalent connector
T4 chain: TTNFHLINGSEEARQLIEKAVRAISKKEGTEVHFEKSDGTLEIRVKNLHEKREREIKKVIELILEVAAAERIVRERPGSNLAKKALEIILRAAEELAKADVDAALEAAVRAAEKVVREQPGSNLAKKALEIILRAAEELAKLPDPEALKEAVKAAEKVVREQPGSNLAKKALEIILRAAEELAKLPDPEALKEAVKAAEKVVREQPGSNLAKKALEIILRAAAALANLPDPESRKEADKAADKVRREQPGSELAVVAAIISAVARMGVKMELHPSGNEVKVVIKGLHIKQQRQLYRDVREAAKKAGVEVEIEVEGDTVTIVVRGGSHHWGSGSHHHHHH

B1: 274A53 (designed binder)
chain: TTNFHLINGSEEARQLIEKAVRAISKKEGTEVHFEKSDGTLEIRVKNLHEKREREIKKVIELILEVAAAERIVRERPGSNLAKKALEIILRAAEELAKADVDAALEAAVRAAEKVVREQPGSNLAKKALEIILRAAEELAKLPDPEALKEAVKAAEKVVREQPGSELAKKALEIIERAAEELKKSPDPEAQKEAKKAEQKVREESGSHHWGSGLNDIFEAQKIEWHEGSHHHHHH
notes: also called LHD274A DHR53 stop; LHD274A53
B1: binds [1]; binds [2]; no binding (tested: 8.0 uM) [3]. B1: binds [4].

B2: 101B62 (designed binder)
chain: HHHHHHGSGLNDIFEAQKIEWHEAENLYFQSGSNDEKRKRAEKALQRAQEAEKKGDVEEAVRAAQEAVRAAKESGDNDVLRKVAEQALRIAKEAEKQGNVEVAVKAARVAVEAAKQAGDNDVLRKVAEQALRIAKEALKQGNVDVAAKAAQVAEEAAKQAGDQDVLRKVKEVQIEIVLAAIELTVRKMGVTMETHRSGREVKVVIKGLHESQQEQLLEDVLRIAELAGVRVRIRFKGDTVTIVVRG
notes: also called LHD101B62
B2: binds [5].
